{"source": "paper PMC6640053", "test_system": "Lrp (C-terminal His6 as stated; cloned NdeI/XhoI in pET28a) (Escherichia coli K-12 (strain FW102 genomic DNA))", "assay": "EMSA", "conditions": "no effector; apparent overall Kd; four complexes B1-B4; 10 mM Tris-HCl pH 7.4, 5 mM MgCl2, 250 mM KCl, 2.5 mM CaCl2, 0.5 mM DTT, 2.5% glycerol, 37 C 25 min; L-Arg and/or L-Leu when indicated; excess sonicated …"}
{"substance": "artP control region", "values": [{"measurement": "Kd", "result": 200, "unit": "nM"}]}
